Each block holds one binder with its values, some of them ahead of it.
What was measured:
[1] = molecular target: T1, synthetic Aβ (1-42) peptide (UniProt P05067 672-713); assay: solid phase binding: Aβ (1-42) immobilized on 96-well plates, culture supernatant applied, detection with anti-CLAC antibody and peroxidase secondary antibody, TMB; ten trials
T1 construct: domain: Aβ (1-42); also called beta-amyloid; amyloid-beta peptide
Description: In vitro binding of CLAC to Aβ was performed according to a method of Webster et al. (Am. J. Pathol., 150, 1531 (1997)).
The transformant (strain 9D2-1) permanently expressing human CLAC-P obtained in Example 3 was selection-cultured in DMEM medium containing 10% FBS and hygromycin for 4 days, and the culture supernatant was collected. Fifty μl (0.1 mg/ml) of synthetic Aβ (1-42) (Bachem) was immobilized to each well of 96-well micro-well plates (Greiner), and dried in a desiccator. Thereafter, blocking was performed with PBS-T containing 1% gelatin (Wako Junyaku) for 1 hour, and washed with PBS-T for 10 min (3×), and the culture supernatant obtained was applied. Similarly, culture supernatant of control HEK293 cells used in Example 3 was applied. After reaction at room temperature for 1 hour, washed with PBS-T for 10 min (5×), and then reacted with anti-CLAC antibody diluted with similar blocking solution (1/5000) at room temperature for 1 hour. After washing with PBS-T for 10 min (5×), reacted with a secondary antibody (anti-rabbit Ig, horseradish peroxidase bound whole antibody (Amersham)) diluted with similar blocking solution (1/5000) at room temperature for 1 hour. After washing with PBS-T for 10 min (5×), colour was developed with TMB reagent (Kirkegard & Perry Laboratories).

[2] = molecular target: T1, synthetic Aβ (1-42) peptide; assay: Aβ (1-42) binding to HEK293 cells expressing human CLAC-P; Western blotting

T1 sequence (P05067 672-713 limits assumed): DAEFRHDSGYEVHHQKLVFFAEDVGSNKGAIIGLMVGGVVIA

fold colour development against control HEK293 supernatant [1]: ~50 times
B1: CLAC secreted by HEK293 transformant strain 9D2-1 permanently expressing human CLAC-P (other)
chain: EAPSECNCPAGPPGKRGKRGRRGESGPPGQPGPQGPPGPKGDKGEQGDQGPRMVFPKINHGFLSADQQLIKRRLIKGDQGQAGPPGPPGPPGPRGPPGDTGKDGPRGMPGVPGEPGKPGEQGLMGPLGPPGQKGSIGAPGIPGMNGQKGEPGLPGAVGQNGIPGPKGEPGEQGEKGDAGENGPKGDTGEKGDPGSSAAGIKGEPGESGRPGQKGEPGLPGLPGLPGIKGEPGFIGPQGEPGLPGLPGTKGERGEAGPPGRGERGEPGAPGPKGKQGESGTRGPKGSKGDRGEKGDSGAQGPRGPPGQKGDQGATKIIDYNGNLHEALQRITTLTVTGPPGPPGPQGLQGPKGEQGSPGIPGMDGEQGLKGSKGDMGDPGMTGEKGGIGLPGLPGANGMKGEKGDSGMPGPQGPSIIGPPGPPGPHGPPGPMGPHGLPGPKGTDGPMGPHGPAGPKGERGEKGAMGEPGPRGPYGLPGKDGEPGLDGFPGPRGEKGDLGEKGEKGFRGVKGEKGEPGQPGLDGLDAPCQLGPDGLPMPGCWQK
modifications: Usually, the first amino acid Glu of CLAC is cyclized to be pyroglutamic acid residue
notes: also called crude purified CLAC; culture supernatant of transformant permanently expressing CLAC-P

binding result [2]: binds
B2: human CLAC-P (precursor of CLAC), full length (receptor)
chain: MLLKKHAGKGGGREPRSEDPTPAEQHCSRTMPPCAVLAALLSVVAVVSCLYLGVKTNDLQARIAALESAKGAPSIHLLPDTLDHLKTMVQEKVERLLAQKSYEHMAKIRIAREAPSECNCPAGPPGKRGKRGRRGESGPPGQPGPQGPPGPKGDKGEQGDQGPRMVFPKINHGFLSADQQLIKRRLIKGDQGQAGPPGPPGPPGPRGPPGDTGKDGPRGMPGVPGEPGKPGEQGLMGPLGPPGQKGSIGAPGIPGMNGQKGEPGLPGAVGQNGIPGPKGEPGEQGEKGDAGENGPKGDTGEKGDPGSSAAGIKGEPGESGRPGQKGEPGLPGLPGLPGIKGEPGFIGPQGEPGLPGLPGTKGERGEAGPPGRGERGEPGAPGPKGKQGESGTRGPKGSKGDRGEKGDSGAQGPRGPPGQKGDQGATKIIDYNGNLHEALQRITTLTVTGPPGPPGPQGLQGPKGEQGSPGIPGMDGEQGLKGSKGDMGDPGMTGEKGGIGLPGLPGANGMKGEKGDSGMPGPQGPSIIGPPGPPGPHGPPGPMGPHGLPGPKGTDGPMGPHGPAGPKGERGEKGAMGEPGPRGPYGLPGKDGEPGLDGFPGPRGEKGDLGEKGEKGFRGVKGEKGEPGQPGLDGLDAPCQLGPDGLPMPGCWQK
notes: Type II single pass transmembrane protein of 654 amino acids, expressed permanently in HEK293 cells (strains 9D2-1, 9D2-2, 9D2-11); also called full length recombinant CLAC-P protein; 9D2 antigen precursor

From patent publication US20040250304A1 (EISAI R AND D MANAGEMENT, published 2004)
